Source: paper PMC7588454, “Osteopontin binds ICOSL promoting tumor metastasis” (Communications Biology, 2020)

B1: recombinant N-term portion of OPN (aa 17-167) (domain or fragment)
chain: not shown
notes: Osteopontin, N-terminal thrombin-generated fragment, aa 17-167; also called OPN-N; OPN-N terminal; source: recombinant
B2: soluble recombinant ICOSL-Fc (Fc fusion, UniProt O75144 19-256, looked up)
chain: DTQEKEVRAMVGSDVELSCACPEGSRFDLNDVYVYWQTSESKTVVTYHIPQNSSLENVDSRYRNRALMSPAGMLRGDFSLRLFNVTPQDEQKFHCLVLSQSLGFQEVLSVEVTLHVAANFSVPVVSAPHSPSQDELTFTCTSINGYPRPNVYWINKTDNSLLDQALQNDTVFLNMRGLYDVVSVLRIARTPSVNIGCCIENVLLQQNLTVGSQTGNDIGERDKITENPVSTGEKNAAT
notes: also called B7-H2; CD275; source: bought: Bio-Techne / R&D
B3: recombinant C-term portion of OPN (aa 168-314) (domain or fragment)
chain: not shown
notes: Osteopontin, C-terminal thrombin-generated fragment, aa 168-314; also called OPN-C; OPN-C terminal; source: recombinant

Assays:
Experiment in all cases: ELISA; OPN preparation (60 nM in PBS) coated on MaxiSorp plates; ICOSL-Fc titrated from 60 nM to 1.8 nM in PBS + 0.05% Tween-20, 1 h at 25 C, with or without 60 nM ICOS-Fc, or ICOS-Fc alone; detected with HRP anti-human-IgG1
Conditions in all cases: both partners purified
[1] = target: B2
[2] = target: T1, full-length OPN (OPN-a) produced in an eukaryotic system ( (human or mouse cDNA cloned), UniProt P10451-1 17-314)
T1 construct: Osteopontin, full-length form OPN-a; Secreted into the supernatant, so the signal peptide is probably absent (surmise); also called OPN-FL; home-made OPN-FL; source: CHO cells, stably transfected (pUCOE vector), purified from supernatant on nickel-nitrilotriacetic agarose
T1 sequence (P10451 17-314): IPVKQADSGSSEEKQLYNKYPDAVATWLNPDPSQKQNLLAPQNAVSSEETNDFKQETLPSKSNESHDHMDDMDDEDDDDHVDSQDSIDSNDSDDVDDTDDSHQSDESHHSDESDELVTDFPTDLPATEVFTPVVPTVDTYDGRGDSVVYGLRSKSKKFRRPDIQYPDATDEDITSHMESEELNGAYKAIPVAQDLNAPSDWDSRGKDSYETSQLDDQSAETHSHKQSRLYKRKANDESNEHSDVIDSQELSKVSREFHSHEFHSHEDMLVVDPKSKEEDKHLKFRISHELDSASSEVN

[3] = target: T2, GST-OPN fusion protein (human OPNa) produced in E. coli (human, UniProt P10451-1 17-314)
T2 construct: human Osteopontin OPNa; also called OPN-GST; huGST-OPN; source: E. coli BL21 (DE3), purified (Glutathione Sepharose)
T2 sequence (P10451 17-314): as above

Row | Binder | binding result [1] | binding result [2] | binding result [3]
1 | B1 | binds |  | 
2 | B2 |  | binds | binds
3 | B3 | binds |  | 
